In US20240141045A1 (PRECIGEN, published 2024):

Experiments:
[1] = target: TGF-β1 (UniProt P01137 279-390); test: cell-based or functional assay
[2] = target: T1, PD-1 Fc fusion protein (UniProt Q15116 25-167, limits assumed); test: SPR (Biacore), PD1-Fc immobilised on CM5, 1:1 Langmuir model with mass transfer
T1 construct: Antigen immobilised on the CM5 chip in all PD-1 SPR assays; also called PD-1 fused to human Fc region; PD-1-Fc antigen; not shown: human Fc region
Description: PD1-Fc antigen and reference antigen was immobilized on Biacore CM5 surface. […] Kinetics data was evaluated for 1:1 model: Langmuir with mass transfer.

[3] = target: T1, PD-1 Fc fusion protein; test: SPR (Biacore 3000), recombinant PD-1 Fc immobilised on CM5 chip, fusion protein injected
Description: Surface plasma resonance (SPR) analysis was performed using Biacore3000, CM5 chip, an amine-coupling kit, 10×HBS-P running buffer and Glycine for. […] Dissociation was allowed to proceed followed by regeneration of the chip surface.

T1 sequence (Q15116 25-167 limits assumed): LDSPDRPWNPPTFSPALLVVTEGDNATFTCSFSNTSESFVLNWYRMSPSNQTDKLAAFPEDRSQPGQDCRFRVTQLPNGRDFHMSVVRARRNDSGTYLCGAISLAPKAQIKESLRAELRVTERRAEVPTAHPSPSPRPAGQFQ
Chain of TGF-β1 (P01137 279-390 limits assumed): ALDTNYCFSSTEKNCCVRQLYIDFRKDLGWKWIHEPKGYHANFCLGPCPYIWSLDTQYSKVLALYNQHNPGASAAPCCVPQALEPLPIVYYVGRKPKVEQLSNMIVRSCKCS

Binder | IC50, TGF-β1 neutralization activity (HEK-Blue TGF-β reporter cells) [1] [pM] | also measured
Anti-PD1 (VL5-VH6).IgG4-Linker8-TGFbRII (antibody) heavy: QVQLVESGGGVVQPGRSLRLDCKASGITFSNSGMHWVRQAPGKGLEWVAVIWYDGSKRYYADSVKGRFTISRDNSKNTLFLQMNSLRAEDTAVYYCATNDDYWGQGTLVTVSSASTKGPSVFPLAPCSRSTSESTAALGCLVKDYFPEPVTVSWNSGALTSGVHTFPAVLQSSGLYSLSSVVTVPSSSLGTKTYTCNVDHKPSNTKVDKRVESKYGPPCPSCPAPEFLGGPSVFLFPPKPKDTLMISRTPEVTCVVVDVSQEDPEVQFNWYVDGVEVHNAKTKPREEQFNSTYRVVSVLTVLHQDWLNGKEYKCKVSNKGLPSSIEKTISKAKGQPREPQVYTLPPSQEEMTKNQVSLTCLVKGFYPSDIAVEWESNGQPENNYKTTPPVLDSDGSFFLYSRLTVDKSRWQEGNVFSCSVMHEALHNHYTQKSLSLSPGKDPGSGGSVPLGSGGSNPGSIPPHVQKSVNNDMIVTDNNGAVKFPQLCKFCDVRFSTCDNQKSCMSNCSITSICEKPQEVCVAVWRKNDENITLETVCHDPKLPYHDFILEDAASPKCIMKEKKKPGETFFMCSCSSDECNDNIIFSEEYNTSNPD light: not shown | 1.2 | –
Anti-PD1 (VL5-VH6).IgG4-Linker 2-TGFbRII (antibody) heavy: QVQLVESGGGVVQPGRSLRLDCKASGITFSNSGMHWVRQAPGKGLEWVAVIWYDGSKRYYADSVKGRFTISRDNSKNTLFLQMNSLRAEDTAVYYCATNDDYWGQGTLVTVSSASTKGPSVFPLAPCSRSTSESTAALGCLVKDYFPEPVTVSWNSGALTSGVHTFPAVLQSSGLYSLSSVVTVPSSSLGTKTYTCNVDHKPSNTKVDKRVESKYGPPCPSCPAPEFLGGPSVFLFPPKPKDTLMISRTPEVTCVVVDVSQEDPEVQFNWYVDGVEVHNAKTKPREEQFNSTYRVVSVLTVLHQDWLNGKEYKCKVSNKGLPSSIEKTISKAKGQPREPQVYTLPPSQEEMTKNQVSLTCLVKGFYPSDIAVEWESNGQPENNYKTTPPVLDSDGSFFLYSRLTVDKSRWQEGNVFSCSVMHEALHNHYTQKSLSLSPGKGGGGSGGGSIPPHVQKSVNNDMIVTDNNGAVKFPQLCKFCDVRFSTCDNQKSCMSNCSITSICEKPQEVCVAVWRKNDENITLETVCHDPKLPYHDFILEDAASPKCIMKEKKKPGETFFMCSCSSDECNDNIIFSEEYNTSNPD light: not shown | 1.2 | –
Anti-PD1 (VL5-VH6).IgG4-Linker12-TGFbRII (antibody) heavy: QVQLVESGGGVVQPGRSLRLDCKASGITFSNSGMHWVRQAPGKGLEWVAVIWYDGSKRYYADSVKGRFTISRDNSKNTLFLQMNSLRAEDTAVYYCATNDDYWGQGTLVTVSSASTKGPSVFPLAPCSRSTSESTAALGCLVKDYFPEPVTVSWNSGALTSGVHTFPAVLQSSGLYSLSSVVTVPSSSLGTKTYTCNVDHKPSNTKVDKRVESKYGPPCPSCPAPEFLGGPSVFLFPPKPKDTLMISRTPEVTCVVVDVSQEDPEVQFNWYVDGVEVHNAKTKPREEQFNSTYRVVSVLTVLHQDWLNGKEYKCKVSNKGLPSSIEKTISKAKGQPREPQVYTLPPSQEEMTKNQVSLTCLVKGFYPSDIAVEWESNGQPENNYKTTPPVLDSDGSFFLYSRLTVDKSRWQEGNVFSCSVMHEALHNHYTQKSLSLSPGKDPVLEREDKVTTSKNPGSIPPHVQKSVNNDMIVTDNNGAVKFPQLCKFCDVRFSTCDNQKSCMSNCSITSICEKPQEVCVAVWRKNDENITLETVCHDPKLPYHDFILEDAASPKCIMKEKKKPGETFFMCSCSSDECNDNIIFSEEYNTSNPD light: not shown | 2.7 | –
Anti-PD1 (VL5-VH6).IgG4-Linker10-TGFbRII (antibody) heavy: QVQLVESGGGVVQPGRSLRLDCKASGITFSNSGMHWVRQAPGKGLEWVAVIWYDGSKRYYADSVKGRFTISRDNSKNTLFLQMNSLRAEDTAVYYCATNDDYWGQGTLVTVSSASTKGPSVFPLAPCSRSTSESTAALGCLVKDYFPEPVTVSWNSGALTSGVHTFPAVLQSSGLYSLSSVVTVPSSSLGTKTYTCNVDHKPSNTKVDKRVESKYGPPCPSCPAPEFLGGPSVFLFPPKPKDTLMISRTPEVTCVVVDVSQEDPEVQFNWYVDGVEVHNAKTKPREEQFNSTYRVVSVLTVLHQDWLNGKEYKCKVSNKGLPSSIEKTISKAKGQPREPQVYTLPPSQEEMTKNQVSLTCLVKGFYPSDIAVEWESNGQPENNYKTTPPVLDSDGSFFLYSRLTVDKSRWQEGNVFSCSVMHEALHNHYTQKSLSLSPGKDPGVLEREDVPTTSYPNPGSIPPHVQKSVNNDMIVTDNNGAVKFPQLCKFCDVRFSTCDNQKSCMSNCSITSICEKPQEVCVAVWRKNDENITLETVCHDPKLPYHDFILEDAASPKCIMKEKKKPGETFFMCSCSSDECNDNIIFSEEYNTSNPD light: not shown | 1.9 | –
Anti-PD1 (nVL1-nVH3).IgG4 (antibody, V domains shown, IgG4) VH: QVQLVESGGGVVQPGRSLRLDCKASGITFSNSGMHWVRQAPGKGLEWVAVIWYDGSKRYYADSVKGRFTISRDNSKNTLFLQMNSLRAEDTAVYYCATNNDYWGQGTLVTVSS VL: EIVMTQSPATLSLSPGERATLSCRASQSVSSYLAWYQQKPGQAPRLLIYDASNRATGIPARFSGSGSGTDFTLTISSLEPEDFAVYYCQQYNNWPRTFGQGTKVEIK | – | Kd [2]: 14.8 pM
Anti-PD1 (VH6-VL5) scFv-ADA2 (scFv) chain 1: QVQLVESGGGVVQPGRSLRLDCKASGITFSNSGMHWVRQAPGKGLEWVAVIWYDGSKRYYADSVKGRFTISRDNSKNTLFLQMNSLRAEDTAVYYCATNDDYWGQGTLVTVSS chain 2: EIVLTQSPATLSLSPGERATLSCRASQSVSSYLAWYQQKPGQAPRLLIYDASNRATGIPARFSGSGSGTDFTLTISSLEPEDFAVYYCQQSSNWPRTFGQGTKVEIK chain 3: GGGGSGGGGSSIDETRAHLLLKEKMMRLGGRLVLNTKEELANERLMTLKIAEMKEAMRTLIFPPSMHFFQAKHLIERSQVFNILRMMPKGAALHLHDIGIVTMDWLVRNVTYRPHCHICFTPRGIMQFRFAHPTPRPSEKCSKWILLEDYRKRVQNVTEFDDSLLRNFTLVTQHPEVIYTNQNVVWSKFETIFFTISGLIHYAPVFRDYVFRSMQEFYEDNVLYMEIRARLLPVYELSGEHHDEEWSVKTYQEVAQKFVETHPEFIGIKIIYSDHRSKDVAVIAESIRMAMGLRIKFPTVVAGFDLVGHEDTGHSLHDYKEALMIPAKDGVKLPYFFHAGETDWQGTSIDRNILDALMLNTTRIGHGFALSKHPAVRTYSWKKDIPIEVCPISNQVLKLVSDLRNHPVATLMATGHPMVISSDDPAMFGAKGLSYDFYEVFMGIGGMKADLRTLKQLAMNSIKYSTLLESEKNTFMEIWKKRWDKFIADVATK | – | Kd [3]: 3460 pM
Anti-PD1 (nVL1-nVH3).IgG4 (S108P) (antibody, V domains shown) VH: QVQLVESGGGVVQPGRSLRLDCKASGITFSNSGMHWVRQAPGKGLEWVAVIWYDGSKRYYADSVKGRFTISRDNSKNTLFLQMNSLRAEDTAVYYCATNNDYWGQGTLVTVSS VL: EIVMTQSPATLSLSPGERATLSCRASQSVSSYLAWYQQKPGQAPRLLIYDASNRATGIPARFSGSGSGTDFTLTISSLEPEDFAVYYCQQYNNWPRTFGQGTKVEIK | – | Kd [2]: 14.1 pM
Anti-PD1 (VL5-VH6).IgG4-Linker7-TGFbRII (antibody) heavy: QVQLVESGGGVVQPGRSLRLDCKASGITFSNSGMHWVRQAPGKGLEWVAVIWYDGSKRYYADSVKGRFTISRDNSKNTLFLQMNSLRAEDTAVYYCATNDDYWGQGTLVTVSSASTKGPSVFPLAPCSRSTSESTAALGCLVKDYFPEPVTVSWNSGALTSGVHTFPAVLQSSGLYSLSSVVTVPSSSLGTKTYTCNVDHKPSNTKVDKRVESKYGPPCPSCPAPEFLGGPSVFLFPPKPKDTLMISRTPEVTCVVVDVSQEDPEVQFNWYVDGVEVHNAKTKPREEQFNSTYRVVSVLTVLHQDWLNGKEYKCKVSNKGLPSSIEKTISKAKGQPREPQVYTLPPSQEEMTKNQVSLTCLVKGFYPSDIAVEWESNGQPENNYKTTPPVLDSDGSFFLYSRLTVDKSRWQEGNVFSCSVMHEALHNHYTQKSLSLSPGKDPGSGSVPLGSGSNPGSIPPHVQKSVNNDMIVTDNNGAVKFPQLCKFCDVRFSTCDNQKSCMSNCSITSICEKPQEVCVAVWRKNDENITLETVCHDPKLPYHDFILEDAASPKCIMKEKKKPGETFFMCSCSSDECNDNIIFSEEYNTSNPD light: not shown | 1.1 | –
